Assay results reported in patent publication US20210277068A1 (SHANXI KANGBAO BIOLOGICAL PRODUCT, published 2021).
* marks the point of attachment. Stearoyl = CCCCCCCCCCCCCCCCCC(=O)*; Palmitoyl = CCCCCCCCCCCCCCCC(=O)*; Lauroyl = CCCCCCCCCCCC(=O)*; Octanoyl = CCCCCCCC(=O)*

B1: LP-55 (peptide)
peptide: Ac-WEQKIEELLKKAEEQQKKNEEELKK(Palmitoyl)-NH2
SMILES: CCCCCCCCCCCCCCCC(=O)NCCCC[C@H](NC(=O)[C@H](CCCCN)NC(=O)[C@H](CC(C)C)NC(=O)[C@H](CCC(=O)O)NC(=O)[C@H](CCC(=O)O)NC(=O)[C@H](CCC(=O)O)NC(=O)[C@H](CC(N)=O)NC(=O)[C@H](CCCCN)NC(=O)[C@H](CCCCN)NC(=O)[C@H](CCC(N)=O)NC(=O)[C@H](CCC(N)=O)NC(=O)[C@H](CCC(=O)O)NC(=O)[C@H](CCC(=O)O)NC(=O)[C@H](C)NC(=O)[C@H](CCCCN)NC(=O)[C@H](CCCCN)NC(=O)[C@H](CC(C)C)NC(=O)[C@H](CC(C)C)NC(=O)[C@H](CCC(=O)O)NC(=O)[C@H](CCC(=O)O)NC(=O)[C@@H](NC(=O)[C@H](CCCCN)NC(=O)[C@H](CCC(N)=O)NC(=O)[C@H](CCC(=O)O)NC(=O)[C@H](Cc1c[nH]c2ccccc12)NC(C)=O)[C@@H](C)CC)C(N)=O
notes: LP-52 without the C-terminal LEK
B2: LP-88 (peptide)
peptide: Ac-EQKIEELLKKAEEQQKKNEEELKKLEK(Stearoyl)-NH2
SMILES: CCCCCCCCCCCCCCCCCC(=O)NCCCC[C@H](NC(=O)[C@H](CCC(=O)O)NC(=O)[C@H](CC(C)C)NC(=O)[C@H](CCCCN)NC(=O)[C@H](CCCCN)NC(=O)[C@H](CC(C)C)NC(=O)[C@H](CCC(=O)O)NC(=O)[C@H](CCC(=O)O)NC(=O)[C@H](CCC(=O)O)NC(=O)[C@H](CC(N)=O)NC(=O)[C@H](CCCCN)NC(=O)[C@H](CCCCN)NC(=O)[C@H](CCC(N)=O)NC(=O)[C@H](CCC(N)=O)NC(=O)[C@H](CCC(=O)O)NC(=O)[C@H](CCC(=O)O)NC(=O)[C@H](C)NC(=O)[C@H](CCCCN)NC(=O)[C@H](CCCCN)NC(=O)[C@H](CC(C)C)NC(=O)[C@H](CC(C)C)NC(=O)[C@H](CCC(=O)O)NC(=O)[C@H](CCC(=O)O)NC(=O)[C@@H](NC(=O)[C@H](CCCCN)NC(=O)[C@H](CCC(N)=O)NC(=O)[C@H](CCC(=O)O)NC(C)=O)[C@@H](C)CC)C(N)=O
B3: LP-64 (peptide)
peptide: Ac-KIEELLKKAEEQQKKNEEELKKLEK(Palmitoyl)-NH2
SMILES: CCCCCCCCCCCCCCCC(=O)NCCCC[C@H](NC(=O)[C@H](CCC(=O)O)NC(=O)[C@H](CC(C)C)NC(=O)[C@H](CCCCN)NC(=O)[C@H](CCCCN)NC(=O)[C@H](CC(C)C)NC(=O)[C@H](CCC(=O)O)NC(=O)[C@H](CCC(=O)O)NC(=O)[C@H](CCC(=O)O)NC(=O)[C@H](CC(N)=O)NC(=O)[C@H](CCCCN)NC(=O)[C@H](CCCCN)NC(=O)[C@H](CCC(N)=O)NC(=O)[C@H](CCC(N)=O)NC(=O)[C@H](CCC(=O)O)NC(=O)[C@H](CCC(=O)O)NC(=O)[C@H](C)NC(=O)[C@H](CCCCN)NC(=O)[C@H](CCCCN)NC(=O)[C@H](CC(C)C)NC(=O)[C@H](CC(C)C)NC(=O)[C@H](CCC(=O)O)NC(=O)[C@H](CCC(=O)O)NC(=O)[C@@H](NC(=O)[C@H](CCCCN)NC(C)=O)[C@@H](C)CC)C(N)=O
notes: N-terminally truncated, based on LP-52
B4: LP-63 (peptide)
peptide: Ac-QKIEELLKKAEEQQKKNEEELKKLEK(Palmitoyl)-NH2
SMILES: CCCCCCCCCCCCCCCC(=O)NCCCC[C@H](NC(=O)[C@H](CCC(=O)O)NC(=O)[C@H](CC(C)C)NC(=O)[C@H](CCCCN)NC(=O)[C@H](CCCCN)NC(=O)[C@H](CC(C)C)NC(=O)[C@H](CCC(=O)O)NC(=O)[C@H](CCC(=O)O)NC(=O)[C@H](CCC(=O)O)NC(=O)[C@H](CC(N)=O)NC(=O)[C@H](CCCCN)NC(=O)[C@H](CCCCN)NC(=O)[C@H](CCC(N)=O)NC(=O)[C@H](CCC(N)=O)NC(=O)[C@H](CCC(=O)O)NC(=O)[C@H](CCC(=O)O)NC(=O)[C@H](C)NC(=O)[C@H](CCCCN)NC(=O)[C@H](CCCCN)NC(=O)[C@H](CC(C)C)NC(=O)[C@H](CC(C)C)NC(=O)[C@H](CCC(=O)O)NC(=O)[C@H](CCC(=O)O)NC(=O)[C@@H](NC(=O)[C@H](CCCCN)NC(=O)[C@H](CCC(N)=O)NC(C)=O)[C@@H](C)CC)C(N)=O
notes: N-terminally truncated, based on LP-52; also called P63 with C16
B5: LP-51 (peptide)
peptide: Ac-LEANIEELLKKAEEQQKKNEEELKKLEK(Palmitoyl)-NH2
SMILES: CCCCCCCCCCCCCCCC(=O)NCCCC[C@H](NC(=O)[C@H](CCC(=O)O)NC(=O)[C@H](CC(C)C)NC(=O)[C@H](CCCCN)NC(=O)[C@H](CCCCN)NC(=O)[C@H](CC(C)C)NC(=O)[C@H](CCC(=O)O)NC(=O)[C@H](CCC(=O)O)NC(=O)[C@H](CCC(=O)O)NC(=O)[C@H](CC(N)=O)NC(=O)[C@H](CCCCN)NC(=O)[C@H](CCCCN)NC(=O)[C@H](CCC(N)=O)NC(=O)[C@H](CCC(N)=O)NC(=O)[C@H](CCC(=O)O)NC(=O)[C@H](CCC(=O)O)NC(=O)[C@H](C)NC(=O)[C@H](CCCCN)NC(=O)[C@H](CCCCN)NC(=O)[C@H](CC(C)C)NC(=O)[C@H](CC(C)C)NC(=O)[C@H](CCC(=O)O)NC(=O)[C@H](CCC(=O)O)NC(=O)[C@@H](NC(=O)[C@H](CC(N)=O)NC(=O)[C@H](C)NC(=O)[C@H](CCC(=O)O)NC(=O)[C@H](CC(C)C)NC(C)=O)[C@@H](C)CC)C(N)=O
B6: LP-62 (peptide)
peptide: Ac-EQKIEELLKKAEEQQKKNEEELKKLEK(Palmitoyl)-NH2
SMILES: CCCCCCCCCCCCCCCC(=O)NCCCC[C@H](NC(=O)[C@H](CCC(=O)O)NC(=O)[C@H](CC(C)C)NC(=O)[C@H](CCCCN)NC(=O)[C@H](CCCCN)NC(=O)[C@H](CC(C)C)NC(=O)[C@H](CCC(=O)O)NC(=O)[C@H](CCC(=O)O)NC(=O)[C@H](CCC(=O)O)NC(=O)[C@H](CC(N)=O)NC(=O)[C@H](CCCCN)NC(=O)[C@H](CCCCN)NC(=O)[C@H](CCC(N)=O)NC(=O)[C@H](CCC(N)=O)NC(=O)[C@H](CCC(=O)O)NC(=O)[C@H](CCC(=O)O)NC(=O)[C@H](C)NC(=O)[C@H](CCCCN)NC(=O)[C@H](CCCCN)NC(=O)[C@H](CC(C)C)NC(=O)[C@H](CC(C)C)NC(=O)[C@H](CCC(=O)O)NC(=O)[C@H](CCC(=O)O)NC(=O)[C@@H](NC(=O)[C@H](CCCCN)NC(=O)[C@H](CCC(N)=O)NC(=O)[C@H](CCC(=O)O)NC(C)=O)[C@@H](C)CC)C(N)=O
notes: as for B3

Molecular target: T1, N39 (HIV-1, N-terminal acetyl (Ac-); C-terminal amide (-NH2))
T1 peptide: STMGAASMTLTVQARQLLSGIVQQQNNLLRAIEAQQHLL
Assay: circular dichroism temperature scan at 220 nm of the 1:1 mixture with N39, 10 µM each in PBS pH 7.2

Q: How did the “Tm value of the complex” value turn out when B1 was run?
A: 63.1 °C

Q: B2 was tested. Which “Tm value of the complex” value did it give?
A: 76.5 °C

Q: Which “Tm value of the complex” value does the source give for Ac-WEQKIEELLKKAEEQQKKNEEELKKLEK(Octanoyl)-NH2 [LP-82] here?
A: 65.1 °C

Q: For B3, which “Tm value of the complex” value is on record?
A: > 70 °C

Q: With Ac-WEQKIEELLKKAEEQQKKNEEELKKLEK(Lauroyl)-NH2 [LP-81] as the protein, how does the “Tm value of the complex” value read?
A: 74.1 °C

Q: For B4, which “Tm value of the complex” value is on record?
A: > 70 °C

Q: Which “Tm value of the complex” value does the source give for B5 here?
A: 72 °C

Q: With B6 as the protein, how does the “Tm value of the complex” value read?
A: > 70 °C
